Data from patent US20220386594A1 (IBI AG INNOVATIVE BIO INSECTICIDES, published 2022).

B1: P45004 (VHH)
VHH: QVQLQESGGGLVQAGGSLRLSCAASGRTFSRINMGWFRQAPGKEREFVAVISWNSIADYADSVKARFTISRDNAKNTVYLQMNSLKPEDTAVYYCAASAPFRSKNPTLYLYWGRGTQVTVSS
notes: Llama nanobody, His-tagged, expressed in E. coli SHuffle T7; also called anti-P450 nanobody P45004
B2: CDA07A (VHH)
VHH: QVQLQESGGGLVQAGGSLRLSCVASGRTFGNYGLAWFRQPPGKEREFVAAINNRGGNTYYADSVKGRFTISRDNAANTLYLQMSSLKPEDTAVYYCAADRTSLHSYRYTYWGQGTQVTVSS
notes: Llama nanobody, His-tagged, expressed in E. coli SHuffle T7; also called CDA7a; CDA7A
B3: CDA10 (VHH)
VHH: QVQLQESGGGLVQTGESLRLSCAASGRTLSSYTMGWFRQAPGKEREIVAASSWSGGRTYYADSVKGRFTMSRNNAENTVYLQMNSLNPEDTAVYYCAADSSRAPRTYNYWGQGTQVTVSS
notes: Llama nanobody, His-tagged, expressed in E. coli SHuffle T7; also called anti-CDA nanobody CDA10
B4: P45003A (VHH)
VHH: QVQLQESGGGLVQAGDSLRLSCVASKRSFSSHAMGWFRQAPGKAREFVATISWNSGSTFYSDSSRGRFTISRDNGKNTLYLQMNSLKPEDTAVYYCAAASGRGITASDFRYDAWGQGTQVTVSS
notes: Llama nanobody, His-tagged, expressed in E. coli SHuffle T7; also called anti-P450 nanobody P45003A
B5: CDA05 (VHH)
VHH: QVQLQESGGGLVQPGGSLRLSCTASGRTVSNYGMAWFRQVAGKERAFVAAINNRGDSKYYAESVKGRFTIARDNAKNTVYLQMNVLKPEDTAVYYCAADRRSLVRYEYNYWGQGTQVTVSS
notes: Llama nanobody, His-tagged, expressed in E. coli SHuffle T7; also called CDA5; anti-CDA nanobody CDA05
B6: P45001A (VHH)
VHH: QVQLQESGGGLVQTGGSLRLSCAASGRTSRSYAMGWFRQAPGKERELVADIAWSDGRIYYSDSVKGRFTISRDNAKNTVYLEIDSLKPGDTAVYYCASRARGTVLYNYWGQGTQVTVSS
notes: Llama nanobody, His-tagged, expressed in E. coli SHuffle T7; also called anti-P450 nanobody P45001A
B7: VAT0101A (VHH)
VHH: QVQLQESGGGLVQAGGSLRLSCAASGSTFSGYIMSWFRQPPGKERELVAAITYVGSTYVEDSVKGRFTISRDNAKNTVSLQMNSLKPEDTAVYYCRAREGEQLDFWGQGTQVTVSS
notes: Llama nanobody, His-tagged, expressed in E. coli SHuffle T7; also called anti-VAT nanobody VAT0101A

Columns and labels:
[1] = molecular target: T1, Helicoverpa armigera cytochrome p450 monooxygenase (Helicoverpa armigera, UniProt Q95031 23-504); test: ELISA, plate coated with 10 ug/ml target protein, 2 ug/ml nanobody, anti-VHH-HRP, A450
T1 construct: the tag is not part of the printed entry; also called target P450 antigen
T1 chain: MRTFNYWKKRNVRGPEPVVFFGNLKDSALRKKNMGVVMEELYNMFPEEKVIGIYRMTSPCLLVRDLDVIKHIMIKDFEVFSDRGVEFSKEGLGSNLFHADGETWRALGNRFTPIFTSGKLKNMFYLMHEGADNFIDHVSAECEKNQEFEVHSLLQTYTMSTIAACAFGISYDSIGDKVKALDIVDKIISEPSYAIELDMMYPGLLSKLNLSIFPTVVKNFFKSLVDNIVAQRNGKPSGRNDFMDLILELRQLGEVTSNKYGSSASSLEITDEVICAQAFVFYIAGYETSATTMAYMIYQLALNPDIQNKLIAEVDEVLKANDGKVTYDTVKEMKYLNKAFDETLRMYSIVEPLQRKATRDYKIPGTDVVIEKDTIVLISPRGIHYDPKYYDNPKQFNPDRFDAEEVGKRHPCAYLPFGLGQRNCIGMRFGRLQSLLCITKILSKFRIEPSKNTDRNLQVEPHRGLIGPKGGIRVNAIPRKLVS

[2] = molecular target: T2, Helicoverpa armigera chitin deacetylase (Helicoverpa armigera); test: as above
T2 construct: the tag is not part of the printed entry; also called CDA; target CDA antigen
T2 chain: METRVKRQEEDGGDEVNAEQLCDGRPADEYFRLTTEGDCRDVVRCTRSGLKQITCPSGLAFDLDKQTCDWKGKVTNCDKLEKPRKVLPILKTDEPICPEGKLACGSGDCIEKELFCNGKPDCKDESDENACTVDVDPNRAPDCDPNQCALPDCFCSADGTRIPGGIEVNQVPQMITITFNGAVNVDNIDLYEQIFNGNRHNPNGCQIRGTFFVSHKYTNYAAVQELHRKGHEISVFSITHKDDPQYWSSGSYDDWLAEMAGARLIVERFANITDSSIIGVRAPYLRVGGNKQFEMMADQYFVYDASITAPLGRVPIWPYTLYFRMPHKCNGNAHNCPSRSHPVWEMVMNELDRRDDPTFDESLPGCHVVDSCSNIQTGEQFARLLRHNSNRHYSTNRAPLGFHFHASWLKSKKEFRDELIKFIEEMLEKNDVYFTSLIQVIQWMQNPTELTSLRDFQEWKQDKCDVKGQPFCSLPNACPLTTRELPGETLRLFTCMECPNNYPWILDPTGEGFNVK

[3] = molecular target: T3, Helicoverpa armigera V-ATPase subunit c (Helicoverpa armigera); test: ELISA, plate coated with the target antigen
T3 construct: also called V-ATPases Subunit C; ATPase V subunit c
T3 chain: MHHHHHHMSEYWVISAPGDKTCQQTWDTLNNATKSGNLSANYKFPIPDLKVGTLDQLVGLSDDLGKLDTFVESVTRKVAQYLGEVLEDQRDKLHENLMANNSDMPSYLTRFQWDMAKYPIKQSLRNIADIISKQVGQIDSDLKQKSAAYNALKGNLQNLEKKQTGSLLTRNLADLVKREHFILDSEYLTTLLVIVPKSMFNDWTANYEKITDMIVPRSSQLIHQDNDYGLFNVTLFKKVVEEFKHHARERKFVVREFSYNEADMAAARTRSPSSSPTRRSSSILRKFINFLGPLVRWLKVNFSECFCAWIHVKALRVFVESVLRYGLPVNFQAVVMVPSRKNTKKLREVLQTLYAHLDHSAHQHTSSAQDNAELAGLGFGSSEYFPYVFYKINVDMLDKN

Binder	binding result [1]	binding result [2]	further results
B1	binds		
B2		binds	
B3		binds	
B4	binds		
B5		binds	
B6	binds		
B7			binding result [3]: binds
